Legend:
p53 = p53 (Homo sapiens, UniProt P04637 P04637:1-393); experiment: FRET; 0-130 nM p53, quenching proportional to p53, 50 mM NaCl, 100 nM nonspecific 30-bp DNA, 25 C; conditions: tags: full-length, expressed in bacteria (gift of K. S. Matthews); chain copies: 4; label: dT-fluorescein (P2), dT-dabcyl (P4); two half-site duplexes with short complementary overhangs
Experimental: The oligonucleotides were purified using reverse phase chromatography on a RPC column as described previously (Heyduk, E., and Heyduk, supra). The fractions containing the oligonucleotides were dried in Vacuum centrifuge concentrator and were dissolved in 50 μl of water. The concentrations of the stock solutions of oligonucleotides were determined by recording the UV-VIS absorption spectrum of a small aliquot of the stock solution diluted to 400 μl. The P1 oligonucleotide (SEQ ID NO:20) was hybridized with the P4 oligonudeotide (SEQ ID NO:23) to generate the P1/P4 duplex construct and the P2 oligonucleotide (SEQ ID NO:21) was hybridized with the P3 (SEQ ID NO:22) oligonucleotide to generate the P2/P3 duplex construct. For the hybridization, the appropriate oligonucleotides were mixed at 10 μM concentration in 100 μl of 50 mM Tris/HCl (pH 8.0), 100 mM NaCl, 1 mM EDTA, heated for 1 min at 95° C. and then cooled to 25° C. for 1 hr. All subsequent fluorescence measurements were performed at 25° C. in 50-mM potassium phosphate (pH 7.5), 50 mM NaCl, and 0.5 mg/ml BSA containing also 100 nM of a nonspecific 30-bp DNA duplex. The DNA duplexes obtained upon hybridization are illustrated in FIG. 18. The duplexes contain a repeat of 10 bp PuPuPuC(A/T)(T/A)GPyPyPy (SEQ ID NO:24) motif split between the two DNA duplexes. […]

Trp repressor (TrpR) [1] = target: T1, Trp repressor (TrpR) (UniProt P0A881 P0A881:2-108); experiment: FRET; specificity control
Lac repressor (LacR) = Lac repressor (LacR) (UniProt P03023 P03023:1-360); experiment: FRET; 0-200 nM LacR, saturation ~150 nM, 50 nM DNA, 25 C; specificity confirmed with 5 mM IPTG; conditions: chain copies: 4; label: dT-fluorescein (LAC2), dT-dabcyl (LAC4); two half-site duplexes with short complementary overhangs
Sequence of Lac repressor (LacR) (P03023 whole entry, one chain of several): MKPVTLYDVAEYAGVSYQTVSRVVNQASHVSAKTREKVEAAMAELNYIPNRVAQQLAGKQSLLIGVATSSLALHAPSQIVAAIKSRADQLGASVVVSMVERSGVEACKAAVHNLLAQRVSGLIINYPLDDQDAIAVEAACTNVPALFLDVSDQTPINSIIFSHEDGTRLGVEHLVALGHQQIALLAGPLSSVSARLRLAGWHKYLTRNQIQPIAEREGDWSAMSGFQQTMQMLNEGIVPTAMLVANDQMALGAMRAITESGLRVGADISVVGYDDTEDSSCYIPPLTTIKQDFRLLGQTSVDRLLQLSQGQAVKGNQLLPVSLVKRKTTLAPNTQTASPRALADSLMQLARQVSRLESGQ
Experimental: The oligonucleotides were purified using reverse phase chromatography on RPC column (Amersham Pharmacia Biotech, Piscataway, N.J.) as previously described (Heyduk, E., and Heyduk, T. Anal. Biochem. 248, 216-227, 1997). The fractions containing the oligonucleotides were dried in Vacuum centrifuge concentrator and were dissolved in 50 μl of water. The concentration of the stock solutions of oligonucleotides was determined by recording the UV-VIS absorption spectrum of a small aliquot of the stock solution diluted to 400 μl. The LAC1 oligonucleotide (SEQ ID NO:12) was hybridized with the LAC4 oligonucleotide (SEQ ID NO:15) to generate the LAC1/LAC4 construct and the LAC2 oligonucleotide (SEQ ID NO:13) was hybridized with the LAC3 oligonucleotide (SEQ ID NO:14) to generate the LAC2/LAC3 construct. […] All subsequent fluorescence measurements were performed at 25° C. in 50 mM Tris/HCl (pH 8.0), 100 mM NaCl, 1 mM EDTA, and 0.1 mg/ml BSA. […]
The fluorescence spectra of 50 nM of LAC1/LAC4 plus LAC2/LAC3 were recorded in the absence of LacR (FIG. 14, curve 1) and in the presence of varying amounts of LacR in a range from 0-200 nM (FIG. 14, curves 2-7). Fluorescence signal quenching was proportional to the amount of LacR added to the reaction mixture, with saturation occurring at approximately 150 nM of LacR (FIG. 14, inset). […]

[2] = target: T2, CAP (cAMP receptor protein) (Escherichia coli, UniProt P0ACJ8 P0ACJ8:2-210); experiment: ratiometric FRET; 0-150 nM CAP, 200 uM cAMP, 25 C; conditions: chain copies: 2; label: 7-diethylaminocoumarin-3-carboxylic acid on amino-dT (CAP6), dT-fluorescein (CAP2); two half-site duplexes with short complementary overhangs
T2 sequence (P0ACJ8 2-210, one chain of several): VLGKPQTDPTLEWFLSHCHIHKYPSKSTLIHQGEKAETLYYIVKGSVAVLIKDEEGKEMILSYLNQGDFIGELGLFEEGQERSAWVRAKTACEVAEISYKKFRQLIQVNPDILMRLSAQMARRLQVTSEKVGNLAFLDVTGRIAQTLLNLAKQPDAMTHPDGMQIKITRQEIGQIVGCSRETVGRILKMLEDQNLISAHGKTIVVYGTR
Experimental: In a second experiment (FIG. 9), the pair of CAP6/CAP1 and CAP2/CAP3 nucleic acid duplexes were tested for the performance in CAP assay. In this assay format, the 7-diethylaminocoumarin-3-carboxylic acid present in the CAP6/CAP1 duplex functioned as a fluorescence donor and the fluorescein present in the CAP2/CAP3 duplex functioned as an acceptor. In this case, both the donor as well as the acceptor are fluorescent. The experiment was performed at 25° C. in 50 mM Tris/HCl (pH 8.0), 100 mM NaCl, 1 mM EDTA, 0.1 mg/ml BSA, and 200 μM cAMP. […] The shoulder observed at about 520 nm is due to the residual emission of fluorescein, which is also to a small extent excited at 433 nm. Upon addition of varying amounts of CAP in a range from 0 to 150 nM (curves 2 -9), a pronounced quenching of the peak at 475 nm and a pronounced enhancement of the peak at 520 nm is observed. Recall that the emission maximum of fluorescein is 520 nm. […] Also, as shown in the inset of FIG. 9, the ratio between the fluorescence intensities at 520 nm and 475 nm may be used to determine the concentration of DNA binding proteins. This ratiometric mode of signal detection could be particularly useful since it would be less prone to trivial errors (such as pipetting errors, general quenching by some unrelated compounds present in the assayed sample).

Trp repressor (TrpR) [3] = target: T1, Trp repressor (TrpR); experiment: FRET; 400 nM TrpR, no change
[4] = target: T2, CAP (cAMP receptor protein); experiment: competition; no effect up to 194.2 nM; 200 uM cAMP, 50 mM NaCl; conditions: chain copies: 2
Source text: (§1) The fluorescence donor (fluorescein) and the fluorescence acceptor (dabcyl) were introduced into DNA fragments using commercially available dT-fluorescein and dT-dabcyl (Glen Research, Sterling, Va.), wherein dT stands fordeoxythymidine. The oligonucleotides were purified using reverse phase chromatography on a RPC column (Pharmacia) as previously described (Heyduk, E., and Heyduk, T. Anal. Biochem. 248, 216-227, 1997). The fractions containing the oligonucleotides were dried in a vacuum centrifuge concentrator and subsequently dissolved in 50 μl of water. The concentration of the stock solutions of oligonucleotides was determined by recording the UV-VIS absorption spectrum of a small aliquot of the stock solution diluted to 400 μl. The CAP1 oligonucleotide (SEQ ID NO:1) was hybridized with CAP4 oligonucleotide (SEQ ID NO:4) to generate the CAP1/CAP4 duplex and CAP2 oligonucleotide (SEQ ID NO:2) was hybridized with CAP3 oligonucleotide (SEQ ID NO:3) to generate the CAP2/CAP3 duplex. […] All subsequent fluorescence measurements were performed at 25° C. in 50-mM Tris/HCl (pH 8.0), 100 mM NaCl (or 50 mM NaCl where indicated), 1 mM EDTA, 0.1 mg/ml BSA, and 200 μM cAMP in 200 μl quartz cuvette using Aminco-Bowman Series 2 spectrofluorometer. The excitation wavelength was at 490 nm and the emission was recorded from 500 to 650 nm. […]

[5] = target: T2, CAP (cAMP receptor protein); experiment: FRET; two-color assay, CAP only, no change in fluorescein signal; 200 uM cAMP; conditions: chain copies: 2; label: dT-fluorescein (TRP2), dT-dabcyl (TRP4); two half-site duplexes with short complementary overhangs
Experimental: Nucleic acid constructs specific for each of the proteins to be detected may be labeled with probes that emit light at different wavelengths. In this example, the reaction mixture contained nucleic acid constructs labeled with 7-diethylaminocoumarin-3-carboxylic acid for detecting CAP protein (described in EXAMPLE 2) and nucleic acid constructs labeled with fluorescein for detecting TrpR protein (described in EXAMPLE 6). Specifically, 100 nM CAP5/CAP3, 120 nM CAP1/CAP4, 100 nM TRP2/TRP3, and 120 nM TRP1/TRP4 duplexes were present in the reaction mixture.
All measurements were performed at 15° C. in 10 mM potassium phosphate (pH 7.6), 50 mM NaCl, 0.1 mM EDTA, 4 mM tryptophan, 200 μM cAMP, 10% glycerol, 0.01% sodium azide and 1.0 mg/ml BSA. The fluorescence spectra with the excitation at 433 nm (excitation of 7-diethylaminocoumarin-3-carboxylic acid, FIG. 17A) and with the excitation at 490 nm (excitation of fluorescein, FIG. 17B) were recorded in the absence of the proteins (curves 1), in the presence of CAP only (curves 2), in the presence of TrpR only (curves 3), and in the presence of both CAP and TrpR (curves 4). In the presence of only CAP there was no change in the fluorescein signal (FIG. 17B, curve 2) whereas about 60% quenching of the 7-diethylaminocoumarin-3-carboxylic acid signal was observed (FIG. 17A, curve 2). […]

[6] = target: T2, CAP (cAMP receptor protein); experiment: competition; unlabeled duplex blocks CAP detection; 200 uM cAMP, 50 mM NaCl; conditions: chain copies: 2
Source text: as §1

Trp repressor (TrpR) [7] = target: T1, Trp repressor (TrpR); experiment: FRET; two-color assay, TrpR only, no change in coumarin signal; 15 C

Sequence of p53 (P04637 whole entry, one chain of several): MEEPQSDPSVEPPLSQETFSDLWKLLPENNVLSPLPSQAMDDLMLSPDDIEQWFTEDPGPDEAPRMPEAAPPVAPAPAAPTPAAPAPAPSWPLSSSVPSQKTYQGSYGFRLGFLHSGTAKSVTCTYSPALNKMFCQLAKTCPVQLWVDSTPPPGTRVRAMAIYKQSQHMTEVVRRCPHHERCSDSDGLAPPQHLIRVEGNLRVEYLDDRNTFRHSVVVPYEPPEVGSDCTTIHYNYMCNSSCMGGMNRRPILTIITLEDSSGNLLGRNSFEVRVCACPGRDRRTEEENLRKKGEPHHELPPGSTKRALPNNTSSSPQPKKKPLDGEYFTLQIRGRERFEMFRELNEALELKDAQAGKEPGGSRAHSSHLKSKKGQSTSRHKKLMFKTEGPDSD

B1: P1/P4 + P2/P3 (dsDNA)
DNA 1: GCATCGGTCACAGACA
DNA 2: TGTCTAGGCATGTCTGTGACCGATGC
DNA 3: TGCCTAGACATGCCTTGCAGTCTCGA
DNA 4: TCGAGACTGCAAGGCA
modifications: [strand 2: T5 (N, modified T); strand 3: T5 (N, modified T)]
binding result (p53): binds

B2: LAC1/LAC4 + LAC2/LAC3 (dsDNA)
DNA 1: GGTGTGTGGAATTGTGA
DNA 2: ATACGCTCACAATTCCACACACC
DNA 3: GCGTATAACAATTTCACACAGG
DNA 4: CTTGTGTGAAATTGTT
modifications: [strand 2: T2 (N, modified T); strand 3: T4 (N, modified T)]
binding result (Trp repressor (TrpR) [1]): no binding | binding result (Lac repressor (LacR)): binds

B3: CAP6/CAP1 + CAP2/CAP3 (dsDNA)
DNA 1: TCTACTTCACATTTATTGCGTT
DNA 2: AACGCAATAAATGTGA
DNA 3: AGTAGATCACATTTTAGGCACC
DNA 4: GGTGCCTAAAATGTGA
modifications: [strand 1: T3 (N, modified T); strand 3: T3 (N, modified T)]
binding result [2]: binds

B4: CAP1/CAP4 + CAP2/CAP3 (dsDNA)
DNA 1: AACGCAATAAATGTGA
DNA 2: TCTACTTCACATTTATTGCGTT
DNA 3: AGTAGATCACATTTTAGGCACC
DNA 4: GGTGCCTAAAATGTGA
modifications: [strand 2: T3 (N, modified T); strand 3: T3 (N, modified T)]
binding result (Trp repressor (TrpR) [3]): no binding

B5: NSP1 duplex (dsDNA)
DNA 1: GCATCGGTCACTGCAGTCTCGACAGCTACG
DNA 2: CGTAGCTGTCGAGACTGCAGTGACCGATGC
binding result [4]: no binding

B6: TRP1/TRP4 + TRP2/TRP3 (dsDNA)
DNA 1: GAGATCTATCGAACTA
DNA 2: GTTTACTAGTTCGATAGATCTC
DNA 3: GTAAACTAGTACGAAACTAGAG
DNA 4: CTCTAGTTTCGTACTA
modifications: [strand 2: T2 (N, modified T); strand 3: T2 (N, modified T)]
binding result [5]: no binding

B7: SP1 duplex (dsDNA)
DNA 1: CCTAAAATGTGATCTAGATCACATTTATTG
DNA 2: CAATAAATGTGATCTAGATCACATTTTAGG
binding result [6]: binds

B8: CAP5/CAP3 + CAP4/CAP1 (dsDNA)
DNA 1: AGTAGATCACATTTTAGGCACC
DNA 2: GGTGCCTAAAATGTGA
DNA 3: TCTACTTCACATTTATTGCGTT
DNA 4: AACGCAATAAATGTGA
modifications: [strand 1: T3 (N, modified T); strand 3: T3 (N, modified T)]
binding result (Trp repressor (TrpR) [7]): no binding

Reference: US20030049625, “Rapid and sensitive proximity-based assay for the detection and quantification of DNA binding proteins” (Saint Louis University, published 2003)
